Laboratory results from publication PMC11586414.
“And” between values parts separate entries of the source, which are not always exact repeats. Equal entries are not always repeated.

Legend:
[1] = target: HEPN^Lpg WT (HEPN toxin of the Legionella pneumophila HEPN–MNT module) (Legionella pneumophila Philadelphia 1) (UniProt Q5ZRG2); experiment: crystal structure
[2] = target: HEPN^Lpg WT (HEPN toxin of the Legionella pneumophila HEPN–MNT module) (Legionella pneumophila Philadelphia 1) (UniProt Q5ZRG2); experiment: AUC

Row | Substance | stoichiometry N (MNT^Lpg per HEPN^Lpg chain (1:4)) [1] | stoichiometry N [1] | stoichiometry N [2]
1 | MNT^Lpg (MNT antitoxin of the Legionella pneumophila HEPN–MNT module) (from UniProt Q5ZRG1 1-108) (enzyme) | 0.25 | – | –
2 | HEPN^Lpg WT (HEPN toxin of the Legionella pneumophila HEPN–MNT module) (from UniProt Q5ZRG2 1-139) (natural protein) | – | 4 | 2 and 4
